T1: human FcγRIIA-Arg131 α subunit extracellular domain-His6-GST fusion (human, UniProt P12318 34-217)
T1 construct: extracellular domain; also called FcγRIIA-R131; not shown: glutathione S transferase (GST)
T1 sequence: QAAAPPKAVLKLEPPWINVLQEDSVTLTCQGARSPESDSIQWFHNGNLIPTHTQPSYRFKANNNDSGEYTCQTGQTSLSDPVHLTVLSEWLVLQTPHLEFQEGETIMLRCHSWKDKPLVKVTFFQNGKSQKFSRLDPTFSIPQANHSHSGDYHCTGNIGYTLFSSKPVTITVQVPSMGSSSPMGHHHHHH

T2: human FcγRIIA-H131 α subunit extracellular domain-His6-GST fusion protein (human, UniProt P12318 34-217)
T2 construct: also called FcγRIIA-His131; not shown: glutathione S-transferase (GST)
T2 sequence: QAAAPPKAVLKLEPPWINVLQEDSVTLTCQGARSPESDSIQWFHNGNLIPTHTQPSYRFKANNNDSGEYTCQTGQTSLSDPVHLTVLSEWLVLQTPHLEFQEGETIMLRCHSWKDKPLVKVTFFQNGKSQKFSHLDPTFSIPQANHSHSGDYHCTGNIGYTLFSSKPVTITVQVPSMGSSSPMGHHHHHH

T3: human FcγRIIA-R131 α subunit extracellular domain-His6-GST fusion protein (human, UniProt P12318 34-217)
T3 construct: ECD-6His-GST fusion made in 293 cells, coated on the plate; also called FcγRIIA-Arg131; not shown: glutathione S-transferase (GST)
T3 sequence: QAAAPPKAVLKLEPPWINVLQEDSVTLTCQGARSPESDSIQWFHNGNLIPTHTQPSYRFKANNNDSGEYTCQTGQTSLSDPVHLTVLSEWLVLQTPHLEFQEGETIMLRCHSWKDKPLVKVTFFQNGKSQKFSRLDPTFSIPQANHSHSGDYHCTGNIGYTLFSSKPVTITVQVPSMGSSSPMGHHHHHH

T4: human FcγRIIA-R131 α subunit extracellular domain-6His-GST fusion (human, UniProt P12318 34-217)
T4 construct: also called FcγRIIA-Arg131; not shown: glutathione S-transferase (GST)
T4 sequence: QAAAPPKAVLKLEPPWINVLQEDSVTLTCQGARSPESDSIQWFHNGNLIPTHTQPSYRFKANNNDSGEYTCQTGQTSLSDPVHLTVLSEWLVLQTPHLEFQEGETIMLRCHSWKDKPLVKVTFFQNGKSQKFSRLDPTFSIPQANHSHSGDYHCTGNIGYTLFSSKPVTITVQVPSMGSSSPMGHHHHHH

T5: human FcγRIIB α subunit extracellular domain-6His-GST fusion (human, UniProt P31994 43-217)
T5 construct: not shown: glutathione S-transferase (GST)
T5 sequence: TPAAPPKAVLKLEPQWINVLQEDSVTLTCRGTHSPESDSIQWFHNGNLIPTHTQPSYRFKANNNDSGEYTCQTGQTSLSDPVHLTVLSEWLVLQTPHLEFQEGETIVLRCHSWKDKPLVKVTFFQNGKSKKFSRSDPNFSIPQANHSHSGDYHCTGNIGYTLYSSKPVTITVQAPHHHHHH


Experiments:
[1] = target: T1, human FcγRIIA-Arg131 α subunit …; experiment: hexamer ELISA
[2] = target: T6, human FcγRIIIA-Phe158 α subunit extracellular domain-His6-GST fusion (human, UniProt P08637 17-208); experiment: hexamer ELISA
T6 construct: extracellular domain; also called FcγRIIIA-F158; CD16; not shown: glutathione S transferase (GST)

[3] = target: T7, human FcγRIIIA-Phe158 α subunit extracellular domain-His6-GST fusion protein (human, UniProt P08637 17-208); experiment: ELISA, IgG:IgE hexamer on coated FcγRIIIA-Phe158-GST; value carried over from Table 6
T7 construct: ELISA-format target; also called FcγRIIIA-F158; not shown: glutathione S-transferase (GST)

[4] = target: T2, human FcγRIIA-H131 α subunit …; experiment: ELISA; binding ratio on FcγRIIA-H131 divided by that on FcγRIIA-R131
[5] = target: T3, human FcγRIIA-R131 α subunit …; experiment: ELISA, IgG:IgE hexamer on coated FcγRIIA-R131-GST; separate assays run together with the H131 assays
[6] = target: T8, human FcγRIIIA-Val158 with human γ-chain on stably transfected CHO cells (human, UniProt P08637 17-254; P30273 19-86); experiment: flow cytometry, monomeric IgG on CHO cells with FcγRIIIA-Val158 α- and γ-chains
T8 construct: whole, on cells; CHO cells stably transfected with the α- and γ-chains of the receptor; also called FcγRIIIA-Val158 (cell-based assay); FcγRIIIA-V158

[7] = target: T9, human FcγRIIIA-Val158 α subunit extracellular domain-His6-GST fusion protein (human, UniProt P08637 17-208); experiment: ELISA format, hexameric complex on FcγRIIIA-Val158
T9 construct: ELISA-format target; also called FcγRIIIA-V158; not shown: glutathione S-transferase (GST)

[8] = target: T2, human FcγRIIA-H131 α subunit …; experiment: ELISA, IgG:IgE hexamer on coated FcγRIIA-H131-GST
[9] = target: T3, human FcγRIIA-R131 α subunit …; experiment: ELISA, IgG:IgE hexamer on coated FcγRIIA-R131-GST; value carried over from Table 6, 7 or 8
[10] = target: T7, human FcγRIIIA-Phe158 α subunit …; experiment: ELISA format, hexameric complex on FcγRIIIA-Phe158; separate assays run together with the Val158 assays
[11] = target: T10, human FcγRIIIA-Phe158 with human γ-chain on stably transfected CHO cells (human, UniProt P08637 17-254; P30273 19-86); experiment: flow cytometry, monomeric IgG on CHO cells with FcγRIIIA-Phe158 α- and γ-chains
T10 construct: whole, on cells; CHO cells stably transfected with the α- and γ-chains of the receptor; also called FcγRIIIA-Phe158 (cell-based assay)
Protocol: CHO cell transfection was carried out using Superfect (Qiagen) according to the manufacturer's instructions. […] Receptor expression levels were determined by staining with anti-FcγRIII monoclonal antibody 3G8 (Medarex). Binding of IgG1 variants was performed by adding monomeric IgG in staining buffer to 5×10^5 cells and incubating in 96 well round-bottom tissue culture plates (Costar, Cambridge, Mass.) at 4° C. for 30 min. Cells were washed three times with staining buffer and IgG binding detected by addition of 1:200 PE-F(ab')_2 fragment of goat anti-human IgG and incubation for 30 min at 4° C. After washing, immunofluorescence staining was analyzed on a FACScan flow cytometer using Cellquest software (Becton Dickinson). Dead cells were excluded from analysis by addition of 1 μg/ml propidium iodide.
For FcγRIIIA, the selected variants were assayed in the ELISA-format as well as on stable-transfected CHO cell lines expressing the γ-chains (FcγRIIIA-Phe158 or FcγRIIIA-Val158) with the associated human α-chain.

[12] = target: T11, human FcγRIIIA-F158 α subunit extracellular domain-6His-GST fusion (human, UniProt P08637 17-208); experiment: ELISA, IgG:IgE hexamers on receptor-GST
T11 construct: also called FcγRIIIA-Phe158; not shown: glutathione S-transferase (GST)

[13] = target: T4, human FcγRIIA-R131 α subunit …; experiment: ELISA, IgG:IgE hexamers on receptor-GST
[14] = target: T5, human FcγRIIB α subunit extracellular …; experiment: ELISA, IgG:IgE hexamers on receptor-GST
[15] = target: T12, human FcγRI (FcγRIA) α subunit extracellular domain-His6-GST fusion (human, UniProt P12314 16-292); experiment: monomeric IgG; ELISA on receptor-GST and THP-1 cells, averaged
T12 construct: Reported FcγRI values are the average of the plate ELISA on this fusion and of a flow cytometry assay on THP-1 cells; also called GST-FcγRIA; not shown: glutathione S-transferase (GST)
T12 sequence (P12314 other isoform, or with tags, fused parts or gaps, form in doubt): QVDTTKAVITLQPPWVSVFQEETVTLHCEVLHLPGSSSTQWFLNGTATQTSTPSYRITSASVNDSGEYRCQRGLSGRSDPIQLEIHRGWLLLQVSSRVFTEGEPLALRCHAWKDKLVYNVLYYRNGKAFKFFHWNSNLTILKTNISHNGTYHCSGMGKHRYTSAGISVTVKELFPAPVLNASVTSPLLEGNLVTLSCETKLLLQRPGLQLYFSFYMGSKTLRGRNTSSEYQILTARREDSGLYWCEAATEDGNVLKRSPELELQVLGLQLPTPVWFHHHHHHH

T8 sequence (P08637 17-254 F176V, chain 1 of 2): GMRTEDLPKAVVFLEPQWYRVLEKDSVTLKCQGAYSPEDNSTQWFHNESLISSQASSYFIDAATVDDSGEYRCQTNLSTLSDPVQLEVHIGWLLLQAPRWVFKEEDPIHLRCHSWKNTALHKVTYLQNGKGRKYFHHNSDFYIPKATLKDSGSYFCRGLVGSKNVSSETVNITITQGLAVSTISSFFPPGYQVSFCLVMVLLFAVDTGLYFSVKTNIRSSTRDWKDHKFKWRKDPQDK
T8 sequence (P30273 19-86, chain 2 of 2): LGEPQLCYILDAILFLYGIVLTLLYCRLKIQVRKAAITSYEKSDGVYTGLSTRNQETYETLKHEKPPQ
T7 sequence (P08637 other isoform, or with tags, fused parts or gaps, form in doubt): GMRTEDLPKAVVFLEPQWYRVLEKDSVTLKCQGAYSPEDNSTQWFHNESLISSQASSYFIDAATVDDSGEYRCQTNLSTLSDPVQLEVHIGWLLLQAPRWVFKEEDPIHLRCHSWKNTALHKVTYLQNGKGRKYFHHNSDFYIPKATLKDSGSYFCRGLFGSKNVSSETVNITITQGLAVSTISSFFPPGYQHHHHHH
T10 sequence (P08637 17-254, chain 1 of 2): as the sequence (P08637 17-254 F176V, chain 1 of 2) above, with V160F counted along it
T10 sequence (P30273 19-86, chain 2 of 2): as the sequence (P30273 19-86, chain 2 of 2) above
T9 sequence (P08637 other isoform, or with tags, fused parts or gaps, form in doubt): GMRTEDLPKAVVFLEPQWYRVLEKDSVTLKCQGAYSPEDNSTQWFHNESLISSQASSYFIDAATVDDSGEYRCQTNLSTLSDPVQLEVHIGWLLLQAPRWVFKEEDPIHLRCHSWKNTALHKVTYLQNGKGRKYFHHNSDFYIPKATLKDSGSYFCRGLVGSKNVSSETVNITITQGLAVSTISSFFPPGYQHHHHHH

ratio of binding of the variant to that of native IgG1 [3] | ratio of binding of the variant to that of native IgG1 [6] | ratio of binding of the variant to that of native IgG1 [7] | ratio of binding of the variant to that of native IgG1 [10] | ratio of binding of the variant to that of native IgG1 [11] | Binder | other results
– | – | – | – | – | anti-IgE E27 IgG1 Arg416 changed to Ala (antibody, named only by its position) heavy: not shown light: DIQLTQSPSSLSASVGDRVTITCRASKPVDGEGDSYLNWYQQKPGKAPKLLIYAASYLESGVPSRFSGSGSGTDFTLTISSLQPEDFATYYCQQSHEDPYTFGQGTKVEIKRTVAAPSVFIFPPSDEQLKSGTASVVCLLNNFYPREAKVQWKVDNALQSGNSQESVTEQDSKDSTYSLSSTLTLSKADYEKHKVYACEVTHQGLSSPVTKSFNRGEC | reduction in binding against native IgG1 [1]: 30%; reduction in binding against native IgG1 [2]: 30%
1.34 ratio (variant/native IgG1) | 1.18 ratio (variant/native IgG1) | 1.07 ratio (variant/native IgG1) | 1.49 ratio (variant/native IgG1) | 1.85 ratio (variant/native IgG1) | anti-IgE E27 IgG1 variant Ser298Ala (antibody, also called S317A) heavy: not shown light: DIQLTQSPSSLSASVGDRVTITCRASKPVDGEGDSYLNWYQQKPGKAPKLLIYAASYLESGVPSRFSGSGSGTDFTLTISSLQPEDFATYYCQQSHEDPYTFGQGTKVEIKRTVAAPSVFIFPPSDEQLKSGTASVVCLLNNFYPREAKVQWKVDNALQSGNSQESVTEQDSKDSTYSLSSTLTLSKADYEKHKVYACEVTHQGLSSPVTKSFNRGEC | H131/R131 [4]: 0.93 ratio (H131 value/R131 value); ratio of binding of the variant to that of native IgG1 [5]: 0.26 ratio (variant/native IgG1); ratio of binding of the variant to that of native IgG1 [8]: 0.24 ratio (variant/native IgG1); ratio of binding of the variant to that of native IgG1 [9]: 0.4 ratio (variant/native IgG1)
– | – | – | – | – | E27 IgG1 variant K334(353)M (antibody, also called IG2 190) heavy: not shown light: DIQLTQSPSSLSASVGDRVTITCRASKPVDGEGDSYLNWYQQKPGKAPKLLIYAASYLESGVPSRFSGSGSGTDFTLTISSLQPEDFATYYCQQSHEDPYTFGQGTKVEIKRTVAAPSVFIFPPSDEQLKSGTASVVCLLNNFYPREAKVQWKVDNALQSGNSQESVTEQDSKDSTYSLSSTLTLSKADYEKHKVYACEVTHQGLSSPVTKSFNRGEC | ratio to native IgG1 [12]: 0.49; ratio to native IgG1 [13]: 0.99; ratio to native IgG1 [14]: 0.93; ratio to native IgG1 [15]: 1.18
1.31 ratio (variant/native IgG1) | 0.89 ratio (variant/native IgG1) | 1.01 ratio (variant/native IgG1) | 1.15 ratio (variant/native IgG1) | 1.61 ratio (variant/native IgG1) | anti-IgE E27 IgG1 variant Lys290Ala (antibody, also called K290(307)A; K307A) heavy: not shown light: DIQLTQSPSSLSASVGDRVTITCRASKPVDGEGDSYLNWYQQKPGKAPKLLIYAASYLESGVPSRFSGSGSGTDFTLTISSLQPEDFATYYCQQSHEDPYTFGQGTKVEIKRTVAAPSVFIFPPSDEQLKSGTASVVCLLNNFYPREAKVQWKVDNALQSGNSQESVTEQDSKDSTYSLSSTLTLSKADYEKHKVYACEVTHQGLSSPVTKSFNRGEC | –
1.27 ratio (variant/native IgG1) | 1.08 ratio (variant/native IgG1) | 1.06 ratio (variant/native IgG1) | 1.13 ratio (variant/native IgG1) | 1.42 ratio (variant/native IgG1) | anti-IgE E27 IgG1 variant Glu333Ala (antibody, also called E352A) heavy: not shown light: DIQLTQSPSSLSASVGDRVTITCRASKPVDGEGDSYLNWYQQKPGKAPKLLIYAASYLESGVPSRFSGSGSGTDFTLTISSLQPEDFATYYCQQSHEDPYTFGQGTKVEIKRTVAAPSVFIFPPSDEQLKSGTASVVCLLNNFYPREAKVQWKVDNALQSGNSQESVTEQDSKDSTYSLSSTLTLSKADYEKHKVYACEVTHQGLSSPVTKSFNRGEC | –
0.09 ratio (variant/native IgG1) | 0.05 ratio (variant/native IgG1) | 0.02 ratio (variant/native IgG1) | 0.05 ratio (variant/native IgG1) | 0.12 ratio (variant/native IgG1) | anti-IgE E27 IgG1 variant Asp265Ala (antibody, also called D278A) heavy: not shown light: DIQLTQSPSSLSASVGDRVTITCRASKPVDGEGDSYLNWYQQKPGKAPKLLIYAASYLESGVPSRFSGSGSGTDFTLTISSLQPEDFATYYCQQSHEDPYTFGQGTKVEIKRTVAAPSVFIFPPSDEQLKSGTASVVCLLNNFYPREAKVQWKVDNALQSGNSQESVTEQDSKDSTYSLSSTLTLSKADYEKHKVYACEVTHQGLSSPVTKSFNRGEC | –
1.08 ratio (variant/native IgG1) | 0.88 ratio (variant/native IgG1) | 0.97 ratio (variant/native IgG1) | 1 ratio (variant/native IgG1) | 0.94 ratio (variant/native IgG1) | anti-IgE E27 IgG1 variant Pro331Ala (antibody, also called P331(350)A; IG2 65) heavy: not shown light: DIQLTQSPSSLSASVGDRVTITCRASKPVDGEGDSYLNWYQQKPGKAPKLLIYAASYLESGVPSRFSGSGSGTDFTLTISSLQPEDFATYYCQQSHEDPYTFGQGTKVEIKRTVAAPSVFIFPPSDEQLKSGTASVVCLLNNFYPREAKVQWKVDNALQSGNSQESVTEQDSKDSTYSLSSTLTLSKADYEKHKVYACEVTHQGLSSPVTKSFNRGEC | –
1.39 ratio (variant/native IgG1) | 1.26 ratio (variant/native IgG1) | 1.1 ratio (variant/native IgG1) | 1.39 ratio (variant/native IgG1) | 2.46 ratio (variant/native IgG1) | anti-IgE E27 IgG1 variant Lys334Ala (antibody, also called K353A) heavy: not shown light: DIQLTQSPSSLSASVGDRVTITCRASKPVDGEGDSYLNWYQQKPGKAPKLLIYAASYLESGVPSRFSGSGSGTDFTLTISSLQPEDFATYYCQQSHEDPYTFGQGTKVEIKRTVAAPSVFIFPPSDEQLKSGTASVVCLLNNFYPREAKVQWKVDNALQSGNSQESVTEQDSKDSTYSLSSTLTLSKADYEKHKVYACEVTHQGLSSPVTKSFNRGEC | –
